In publication PMC6071530, “The S100A4 Protein Signals through the ErbB4 Receptor to Promote Neuronal Survival” (Theranostics, 2018):
No end group written: not given here.

T1: human extracellular ErbB4/Fc chimera (human, UniProt Q15303 26-651)
T1 construct: ErbB4, human, extracellular part; also called Fc-conjugated ErbB4; source: bought: R&D Systems (carrier free)
T1 sequence (looked up): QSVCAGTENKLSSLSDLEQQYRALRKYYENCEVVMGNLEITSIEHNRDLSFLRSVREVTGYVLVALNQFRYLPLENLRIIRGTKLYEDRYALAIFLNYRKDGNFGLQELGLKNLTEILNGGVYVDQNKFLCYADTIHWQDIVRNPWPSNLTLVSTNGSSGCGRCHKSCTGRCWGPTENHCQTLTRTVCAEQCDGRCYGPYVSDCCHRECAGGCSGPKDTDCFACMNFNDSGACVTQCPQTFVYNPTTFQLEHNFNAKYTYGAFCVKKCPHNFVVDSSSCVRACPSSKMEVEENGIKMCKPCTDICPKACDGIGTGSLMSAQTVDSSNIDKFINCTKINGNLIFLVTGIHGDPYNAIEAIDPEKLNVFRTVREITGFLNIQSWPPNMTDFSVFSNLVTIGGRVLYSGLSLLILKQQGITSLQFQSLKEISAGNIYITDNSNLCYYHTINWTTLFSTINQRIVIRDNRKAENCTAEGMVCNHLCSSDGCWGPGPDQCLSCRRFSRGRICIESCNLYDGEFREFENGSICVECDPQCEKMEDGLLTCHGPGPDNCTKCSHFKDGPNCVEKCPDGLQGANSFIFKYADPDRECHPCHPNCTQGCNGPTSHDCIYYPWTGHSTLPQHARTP

B1: Recombinant human S100A4 (natural protein)
chain: not shown
notes: S100A4 protein, human, recombinant
B2: H6 peptide (S100A4-derived), tetramer on a lysine backbone (peptide)
peptide: NEFFEGFPDKQPRKK
modifications: also: tetramer: four monomers coupled to a lysine backbone
notes: low-homology ('unique') motif in the C-terminal of S100A4; Dendrimeric tetramer: four copies of the peptide on a lysine backbone; source: synthetic peptide (Schafer-N, Denmark)
B3: Sulfo-SBED-S100A4 (natural protein)
chain: not shown
modifications: derivatized with sulfo-SBED (biotin label-transfer cross-linker); sites not stated
notes: S100A4 protein, human, recombinant; The same protein as m1, carrying the sulfo-SBED label for the label transfer cross-linking; also called sulfo-SBED-conjugated S100A4
B4: amphiregulin (ligand, UniProt P15514 101-187, looked up)
chain: SVRVEQVVKPPQNKTESENTSDKPKRKKKGGKNGKNRRNRKKKNPCNAEFQNFCIHGECKYIEHLEAVTCKCQQEYFGERCGEKSMK
notes: amphiregulin (AR), soluble, ligand of EGFR; also called AR; source: bought: R&D Systems (carrier free)
B5: H3 peptide (S100A4-derived), tetramer on a lysine backbone (peptide)
peptide: KELLTRELPSFLGKRT
modifications: also: tetramer: four monomers coupled to a lysine backbone
notes: motif of S100A4 with high homology within the S100 family; Dendrimeric tetramer: four copies of the peptide on a lysine backbone; source: synthetic peptide (Schafer-N, Denmark)

Tests used:
Conditions in all cases: both partners purified
[1] = biological target: T2, human extracellular ErbB1/Fc chimera (human, UniProt P00533 25-645); experiment: SPR; BIAcore 2000; 2000 RU of ErbB/Fc chimera immobilized covalently on a CM4 chip; S100A4 or peptides as analyte; apparent affinities calculated from binding kinetics
T2 construct: ErbB1 (EGFR), human, extracellular part; also called EGFR; EGFR-Fc; source: bought: R&D Systems (carrier free)

[2] = biological target: T3, human extracellular ErbB3/Fc chimera (human, UniProt P21860 20-643); experiment: as above
T3 construct: ErbB3, human, extracellular part; also called Fc-conjugated ErbB3; source: bought: R&D Systems (carrier free)

[3] = biological target: T1, human extracellular ErbB4/Fc chimera; experiment: as above
[4] = biological target: T2, human extracellular ErbB1/Fc chimera; experiment: cross-linking; label transfer in solution: 100 nM Sulfo-SBED-conjugated protein with 50 nM Fc fusion or mouse IgG, 30 min in the dark at RT in TBS-Ca2+, UV 302 nm 5 min, precipitated with Protein A Dynabeads, reduced, biotin detected with streptavidin-HRP
[5] = biological target: T3, human extracellular ErbB3/Fc chimera; experiment: as above
[6] = biological target: T1, human extracellular ErbB4/Fc chimera; experiment: as above
Recombinant human S100A4 = biological target: B1; experiment: SPR; BIAcore 2000; 2000 RU of recombinant human S100A4 immobilized covalently on a CM4 chip; soluble AR or NRG as analyte
Sequence of Recombinant human S100A4 (P26447 whole entry): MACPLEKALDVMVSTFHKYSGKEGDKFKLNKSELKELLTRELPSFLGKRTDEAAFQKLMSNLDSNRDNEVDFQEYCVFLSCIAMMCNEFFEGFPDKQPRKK

T3 sequence (P21860 20-643, change not shown): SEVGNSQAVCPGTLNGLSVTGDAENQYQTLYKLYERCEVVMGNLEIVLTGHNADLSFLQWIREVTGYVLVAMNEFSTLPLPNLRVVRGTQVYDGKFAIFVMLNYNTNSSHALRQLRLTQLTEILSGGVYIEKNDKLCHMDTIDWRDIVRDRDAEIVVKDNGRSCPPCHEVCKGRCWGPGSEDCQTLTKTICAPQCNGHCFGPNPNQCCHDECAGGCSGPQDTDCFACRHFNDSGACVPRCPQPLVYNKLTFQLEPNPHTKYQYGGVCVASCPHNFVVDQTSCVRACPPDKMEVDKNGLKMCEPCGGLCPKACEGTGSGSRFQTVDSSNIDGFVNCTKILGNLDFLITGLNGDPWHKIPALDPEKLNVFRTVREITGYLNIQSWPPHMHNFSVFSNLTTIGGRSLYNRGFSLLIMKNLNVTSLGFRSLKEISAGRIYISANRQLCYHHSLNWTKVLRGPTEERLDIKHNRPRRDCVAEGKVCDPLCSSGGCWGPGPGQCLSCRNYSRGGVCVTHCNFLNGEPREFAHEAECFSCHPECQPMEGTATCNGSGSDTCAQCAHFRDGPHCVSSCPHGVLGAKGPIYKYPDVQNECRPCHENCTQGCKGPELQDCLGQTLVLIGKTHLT

| Kd [1] [nM] | Kd [2] [nM] | Kd [3] [nM] | binding result [4] | binding result [5] | binding result [6] | Kd (Recombinant human S100A4) [nM] | Binder |
| --- | --- | --- | --- | --- | --- | --- | --- |
| 21.4 ± 5.5 | 58 ± 30 | 66 ± 26.9 |  |  |  |  | B1 |
| 802 ± 114 | 62.3 ± 18.8 | 217 ± 19.9 |  |  |  |  | B2 |
|  |  |  | binds | binds | binds |  | B3 |
|  |  |  |  |  |  | 71.3 ± 12.3 | B4 |
| 107 ± 23.1 | 203 ± 46.7 | 199 ± 53.1 |  |  |  |  | B5 |
